# T1: ASIC1 (Rattus norvegicus, UniProt P55926)
# T1 sequence (P55926 1-526): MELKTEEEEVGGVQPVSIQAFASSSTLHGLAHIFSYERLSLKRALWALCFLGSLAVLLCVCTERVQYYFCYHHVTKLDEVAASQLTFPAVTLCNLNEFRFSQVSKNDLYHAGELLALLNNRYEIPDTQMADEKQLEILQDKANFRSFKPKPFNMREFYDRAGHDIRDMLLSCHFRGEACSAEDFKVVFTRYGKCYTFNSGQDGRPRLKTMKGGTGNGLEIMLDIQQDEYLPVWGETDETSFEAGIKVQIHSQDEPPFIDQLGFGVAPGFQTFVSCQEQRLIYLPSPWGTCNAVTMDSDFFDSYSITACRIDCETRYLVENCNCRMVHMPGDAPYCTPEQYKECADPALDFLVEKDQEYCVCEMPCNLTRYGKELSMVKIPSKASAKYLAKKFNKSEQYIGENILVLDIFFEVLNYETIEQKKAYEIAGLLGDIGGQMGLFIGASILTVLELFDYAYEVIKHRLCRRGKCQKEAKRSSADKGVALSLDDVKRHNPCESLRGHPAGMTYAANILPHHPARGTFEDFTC
# T2: ASIC2a (Rattus norvegicus, UniProt Q62962)
# T2 sequence (Q62962 1-512): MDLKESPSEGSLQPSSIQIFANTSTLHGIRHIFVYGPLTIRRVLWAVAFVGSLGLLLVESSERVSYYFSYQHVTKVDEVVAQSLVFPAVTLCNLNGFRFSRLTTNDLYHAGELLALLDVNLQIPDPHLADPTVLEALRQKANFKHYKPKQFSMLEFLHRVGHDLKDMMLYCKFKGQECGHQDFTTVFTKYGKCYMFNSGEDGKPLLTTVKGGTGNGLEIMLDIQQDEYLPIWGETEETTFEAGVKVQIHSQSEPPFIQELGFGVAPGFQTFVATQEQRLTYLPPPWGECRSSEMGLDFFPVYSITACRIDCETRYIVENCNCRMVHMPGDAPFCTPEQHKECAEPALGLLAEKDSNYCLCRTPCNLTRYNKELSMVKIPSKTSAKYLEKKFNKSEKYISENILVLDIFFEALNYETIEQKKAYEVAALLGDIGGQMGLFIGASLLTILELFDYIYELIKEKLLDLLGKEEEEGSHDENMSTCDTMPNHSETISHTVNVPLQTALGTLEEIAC
# B1: human Acid Sensing Ion Channel 2b (hASIC2b) (protein)
# chain: MSRIGGAGLPAAALTGPGRFRMAREEPAPAALAAAGQPGGGRGGERALQGPGVARRGRPSLSRAKLHGLRHMCAGRTAAGGSFQRRALWVLAFCTSFGLLLSWSSNRLLYWLSFPSHTRVHREWSRQLPFPAVTVCNNNPLRFPRLSKGDLYYAGHWLGLLLPNRTARPLVSELLRGDEPRRQWFRKLADFRLFLPPRHFEGISAAFMDRLGHQLEDMLLSCKYRGELCGPHNFSSVFTKYGKCYMFNSGEDGKPLLTTVKGGTGNGLEIMLDIQQDEYLPIWGETEETTFEAGVKVQIHSQSEPPFIQELGFGVAPGFQTFVATQEQRLTYLPPPWGECRSSEMGLDFFPVYSITACRIDCETRYIVENCNCRMVHMPGDAPFCTPEQHKECAEPALGLLAEKDSNYCLCRTPCNLTRYNKELSMVKIPSKTSAKYLEKKFNKSEKYISENILVLDIFFEALNYETIEQKKAYEVAALLGDIGGQMGLFIGASILTILELFDYIYELIKEKLLDLLGKEEDEGSHDENVSTCDTMPNHSETISHTVNVPLQTTLGTLEEIAC
# Legend:
# ASIC1 = biological target: T1, ASIC1; conditions: cited from earlier work
# ASIC2a = biological target: T2, ASIC2a; conditions: cited from earlier work
# [1] = biological target: human Acid Sensing Ion Channel 2a (hASIC2a) (human) (UniProt Q16515); experiment: cell-based or functional assay
# CHO-K1 cells = experiment: whole-cell patch clamp recording of acid-induced currents in transfected CHO-K1 cells; type: cell-based, Chinese Hamster
# Protocol: The mammalian expression vectors for hASIC2b and hASIC2a were constructed using appropriate expression vectors such as pcDNA3.1 (Clonetech) according to conventional molecular biological methods. Chinese Hamster Ovary (CHO)-K1 cells were seeded on a 35 mm dish in diameter at a density of 20,000 cells, and then transfected with various combinations of ASIC expression vectors with FuGENE6 transfection reagent (Roche) according to the manufacturer's instructions as follows: the hAISC2b expression vector alone (1 μg) for homomeric hASIC2b expression, hASIC2a and green fluorescent protein (GFP) expression vectors (1:2 molar ratio in a total of 1 μg) for hASIC2a expression, and hASIC2b/hASIC2a (1:2 molar ratio in a total of 1 μg) for heteromeric expression. Cells were used for electrophysiological measurements 2 days after the transfection. Successfully transfected cells were recognized by GFP emission signal. Ion currents were recorded using whole-cell patch clamp technique. Recording was made with an Axopatch 200B amplifier (Axon Instruments). Currents were filtered at 5 kHz and digitized by using Digidata 1321A interface. Data were interpolated using Origin6.0 (version 6.0, Microcal). Pipettes were pulled from borosilicate glass and had pipette resistances 1-4MΩ when filled with the intercellular solution. All recordings were made at room temperature (23±2° C.). […]
Molecule,block of ASIC1 (ASIC1),sensitivity of cation transport by ASIC2a (ASIC2a),sensitivity of cation transport by ASIC1a (ASIC1),pH50 value for activation (hASIC2a/hASIC2b co-expressing CHO-K1 cells) [1] [pH],peak current density at pH2.0 (hASIC2a/hASIC2b CHO-K1 transformants) [1] [pA/pF],peak current density at pH3.0 (hASIC2a/hASIC2b CHO-K1 transformants) [1] [pA/pF],peak current density at pH4.0 (hASIC2a/hASIC2b CHO-K1 transformants) [1] [pA/pF],"acid-induced inward currents (CHO-K1 cells; 5 sec application of low pH solution, pH 2.0-4.0, FIG. 5)",effect on acid-induced ion currents of hASIC2a (CHO-K1 cells; co-expression with hASIC2a)
CCN(c1nc(N)c(C(=O)NC(=N)N)nc1Cl)C(C)C [ethylisopropylamiloride],blocked,–,–,–,–,–,–,–,–
N=C(N)NC(=O)c1nc(Cl)c(N)nc1N [amiloride],blocked,sensitive,sensitive,–,–,–,–,–,–
B1,–,–,–,3.43,113,88.9,21,inactive,inhibitory effect

# Source: patent publication US20040146882A1, “Human acid sensing ion channel 2b (hASIC2b), process for producing the same, and its use” (priority 2002, published 2004)
